Paper doi:10.1101/2025.07.08.663703 (2025)

B1: MBP-tagged Mre11-C49 peptide (Mre11 C-terminal residues 644-692) [S. cerevisiae] / HisSUMO-tagged Mer2 [S. cerevisiae] (parent complex)
chain 1: SYGLLNGRKTKTKTRPAASTKTASRRGKGRASRTPKTDILGSLLAKKRK
chain 2: MVARGRTDEISTDVSEANSEHSLMITETSSPFRSIFSHSGKVANAGALEESDKQILEWAGKLELESMELRENSDKLIKVLNENSKTLCKSLNKFNQLLEQDAATNGNVKTLIKDLASQIENQLDKVSTAMLSKGDEKKTKSDSSYRQVLVEEISRYNSKITRHVTNKQHETEKSMRCTQEMLFNVGSQLEDVHKVLLSLSKDMHSLQTRQTALEMAFREKADHAYDRPDVSLNGTTLLHDMDEAHDKQRKKSVPPPRMMVTRSMKRRRSSSPTLSTSQNHNSEDNDDASHRLKRAARTIIPWEELRPDTLESEL

Variants of: B1
Experiment: co-expression Ni-NTA pulldown, anti-MBP immunoblot quantification; co-expressed in E. coli; at least seven independent samples; parent: 1; read off a plot

Row | ratio to parent | Variant
1 | ~0.35 | chain 1 SYGLLNGRKTKTKTRPAASTKTASRRGKGRASRTPKTDIAGSALAKARK [chain 1 L40A, chain 1 L43A, chain 1 K47A]

Variants of: B1
Experiment: as above
Remark: another data set of the same source

Row | ratio to parent | Variant
2 | ~0.26 | chain 2 MVARGRTDEISTDVSEANSEHSLMITETSSPFRSIFSHSGKVANAGALEASDKAILAWAGALELESMELRENSDKLIKVLNENSKTLCKSLNKFNQLLEQDAATNGNVKTLIKDLASQIENQLDKVSTAMLSKGDEKKTKSDSSYRQVLVEEISRYNSKITRHVTNKQHETEKSMRCTQEMLFNVGSQLEDVHKVLLSLSKDMHSLQTRQTALEMAFREKADHAYDRPDVSLNGTTLLHDMDEAHDKQRKKSVPPPRMMVTRSMKRRRSSSPTLSTSQNHNSEDNDDASHRLKRAARTIIPWEELRPDTLESEL [chain 2 E50A, chain 2 Q54A, chain 2 E57A, chain 2 K61A]
